Measured values published in the nanobody polyreactivity screen of Harvey et al. (2022).

Test: yeast display, Sf9 membrane polyspecificity reagent, FACS + sequencing; frameworks hold sequencing errors
Summary of the method: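 Synthetic nanobody libraries on Saccharomyces cerevisiae BJ5465 were galactose-induced for 36–48 hours, stained 1 hour at 4 °C with 10% biotinylated, detergent-solubilized Sf9 membrane reagent and enriched on streptavidin microbeads. FACS then separated cells into low and high (top ~1%) gates by anti-HA (expression) and streptavidin (reagent binding) fluorescence. Genes were colony-PCR amplified, MiSeq 2 × 250 sequenced and CDR-length filtered. A clone's polyreactivity label is that of its gate of origin.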

| Sequence | polyreactivity (PSR sort gate) |
| --- | --- |
| QVHLVESGGGLVQARGSLRLSCAASGSTIGYNTMVWYRQAPGKERELVAAITSGGRTYYADSVKGRFTISRDYAKNTVYLQMNSLKPEDSAVYYCAAYYWWGYPENEYWGQGTQVTVSS | high polyreactivity |
| QVQLVESGGGLVQAGGSLRLSCAASGFTFSDNAMGWYRQAPGKERELVAASSRSGGRTYYADSVKGRFTISRDNAKNTVYLQMNSLKPEDTAVYYCNARRLSTGFDRYDYWGQGTQVTVSS | high polyreactivity |
| QVQLVESGGGLVQAGGSLRLSCAASGRIFDVYAMGWYRQAPGKERELVASISWSDGSTYYADSVKGRFTLSRDNAKNTVYLQMNSLKPEDTAVYYCNALTELGGRWDDYWGQGTQVTVSS | low polyreactivity |
| QVQLVESGGGLVQAGGSLRLSCAASGRNFKQYAMGWYRQAHGKERELVAAISVRGGITYYADSVKGRFTISRDNAKNTVYLQMNSLKPEVTGVYYCAKRSYRTHTYDYWGQGTQVTVSS | low polyreactivity |
| QVQLVESGGGLVQAGGSLRLSCAASGSTFPVYAMGWYRQAPGKERELFAAISRAGSTNYADSVKGRFTISRDNAKNTVYLQMNSLKPEDTAVYYCAARGYLWAGEWYVRRDYWGQGTQVTVSS | high polyreactivity |
| QVQLVESGGGLVQAGGSLRLSCAASGLIFYDNMGWYRQAPGKERELVAAISSSGGSTSYADSVKGRFTISRDNAKNTVYLQMISLKPEDTAVYYCAADSSPAFLGFVGFEYWGQGTEVTVSS | low polyreactivity |
| QVQLVESGGGLVQAGGSLRLSCAASGSTFRSYAMGWYRQAHGKERELVAAITSGGSTYYADSVKGRFTISRDNAKNTVYLQMNSLKPEDTAVYYCNARRRTRNVPGKRLRGGIYVYWGQGTQVTVSS | high polyreactivity |
| QVQLVESGGGLVQAGGSLRLICAASGSIFTPNALGWYRPAPGKERELVAAISSSSDRTYYADSVKGRFTISRDNAKNSVFLLMNSLKPEDTAVYYCAAYAQKRYYWGQGTQVTVSS | high polyreactivity |
| QVQLVESGGGLVQAGGSLRLSCAASGITFPFYAMGWYRQAPGKERELVAAISWSDVDTYYADSVKGRFTISRDNAKNTVYLQMNSLKPEDTAVYYCAVSGVHPYWSDYEYWGQGTQVTVSS | low polyreactivity |
| QVQVVESGGGLVQAGGSLRLSCAASGRIYQYYDMGWYRQAPGKERELVATITSGGSTNYADSVKGRFTISRDNAKNTVYLQMNSLKPEDTAVYYCAALAYTASDYQPYDATEYNYWGQGTQVTVSS | low polyreactivity |
| QVQLVESGGGLVQAGGSLRLSCAASGYIFYRNAMGWYRQAPGKEREFVAAISSSGVSTYYADSVKGRFTISRDTAKNTVYLQMNSLKPEDTAVYYCNTGYIFSSFYSSKYGYWGQGTQVTVSS | low polyreactivity |
| QVQLVESGGGLVQPGGILRLSCAASGYTFQVYAMGWYRQAPGKEREMVASIRWRGGRTYYADSVKGRFTISRDNAKNTVYLQMNSLKPEDTAVYYCAARQYVIYQTYYTYYYWGQGTQVSVSS | high polyreactivity |
| QVQLVESGGCLVQAGCSLRLSCAASGRIFSTYAMGWYRQAPGTERELVAAINKIGGSTYFADSVKGRFTISRDNAKNTVYLQMNSLKPEDTAVYYCAADAPYYPVRRYYYWGQGTQVTVSS | low polyreactivity |
| QVQLVESGGGLVQAGGSLRLICAASGLTSGLNAMGWYRPAPGKERELVATIRTNGGSTYYADSVKGRFTISRDNAKNNVYLQMNSLKPEDTAVYYCAADDKGGFAVEYDYWGQGTQVTVSS | low polyreactivity |
| QVQLVESGGGLVQAGGSLRLTCAASGSIIKRNAMGWYRQAPGKERELVASISSGGSTKYADSVKGRFTISRDNAKTTVYLQMNSLKPEDTAVYYCPKRSSQTRRAYDYWGQGTQVTVSS | low polyreactivity |
| QVQLVESGGGLVQARGSLRLSCAASGRTFYYYAMGWSRQAPGKERELVATISSGGSTSYADSVKGRFTISRDNAKNTVNLQMNSLKPEDTAVYYWNGRGRYLGTYHLGRLYNFWGQGTQVTVSS | high polyreactivity |
| QVQLVESGGGLVQAGGSLRLSCAASGSTFGPYAMGWYRQAPGKERELVATITRNGGSTYYADSVKGRFTISRDNAKNTVYLQMNILKPEDTAVYYCNAEGRWSSFTQRMDYWGQGTQVTVSS | low polyreactivity |
| QVQLVESGGGLVQAGGSLRLSCAASGFIFWKYAMGWYRPAPGKERELVAAISRSGGRTYYADSVKGRFTISRDNAKNTVYLQMNSLKPEDTAVYYCAKDSATYPYGTVGEYNYWGQGTQVTVSS | high polyreactivity |
| QVQLVDSGGGLVQAGGSLRLSCAASGYTLDGNAMGWYRQAPGKQREFVAAITIRGGGTYYADSVKGRFTISRDNAKNTDYVQMNSLKPEDSAVYYCNADTYDPFPWGSDYWGQGTQVTVSS | high polyreactivity |
| QVQLVESGGGLVHAGGRLRLSCAASGRIFGRNAMGWYRPPPGKERELVAAITKSGGRTYYADSVKGRFSISRVNAKNNVYFQMICLKPEDNAVYYCNRIVTFGWQYDFDFWGQGTQVTVSS | high polyreactivity |
| QVQLVESGVVLVQAGGSLRLSCAASGTIFDLNAMGWYRQAPGKEREFVAAISSGGGTYYADSVKGRFTISRDNANNTVYLQMNSQKPEDTAVYYCKARARRYGGRYYYWGQGTQVTVSS | high polyreactivity |
| QVQLVESGGGLVQAGGSLRLSCAASGSTFGFYTMGWYRQAPGKERELVAAISWSTGRTYYADSVKGRFTISRDNAKNTVYLQMNSLKPEDTAVYYCAARALDKYRFGGRYDYWGQGTQVTVSS | low polyreactivity |

| Sequence | polyreactivity (PSR sort gate) |
| --- | --- |
| QVQLVESGGGLVQAGGSLRISCAASGFILKDNAMGWYRQAPGKERELFAAISSGGGTYYADSEKGRFTITRDNAKNTVYLQMNSLNPEDTAVYYCNGDDLYSLNDSSEDYWGQGSQVTVSS | high polyreactivity |
| QVQLVESGGGLVQAGGSLRLSCAASGRTFKRNGMGWYRQAPGKERELVAAIRNTGSTKYADSVKGRFTISRDNAKNTVYLQMNSLKPEDTAVYYCNARVYEAQTYYYWGQGTQVTVSS | high polyreactivity |
| LVQHVESGGGLVKAGGSLRLICAASGRTFLRNAMGWYRQAPGKERELVATITRGGSTYYADSVKGRFTISRDNAKNTVYLEKTSLKPEDTAVYYCSKDFSGGFRRPDYGYWGQGPQVTVSS | low polyreactivity |
| QVQLGESGGGLVQAGGSRRLSCAASGLIFASNAMGWYRQAPGKEREFDAAISISGGSTYYADSVKGRFTISRDNAKNTVYLQMNSLKPEDTAVYYCAAKLYTVRRPELDYWGQGTQVTVSS | low polyreactivity |
| QVQLVDSGGGLVQAGGSLRLSCAASGSTFKIYAMGWYRQAPGKERELVARITSGGSTNYADSVKGRFTISRDNAKNTVYLQMNSLKPEDTAVYYCAARRWSYSTRGQRSSNLDYWGHGTQVTVSS | high polyreactivity |
| QVQLVESGGGLVQAGGSLRLSCAASGRIFRWYGMGWYRQAPGKERELVAAITSGGSTHYADSVKGRFTISRDNAKNTVYLQMNSLKPEDTAVYYCAADPYHLQTRFSGLAEFYYWGQGTQVTVSS | low polyreactivity |
| QVQLVESGGGLVQAGGSLRLSCAASGYTFIYYAMGWYRQAPGTERELVATISIDGSTNYADSVKGRFTISRDNAKNTVYLQMNSLKPEDTAVYYCNRERYEDYDYWGQGTQVTVSS | high polyreactivity |
| QVQLVESGGGLVQAGGSLRLSCAASGSTFRYNTMGWYRQAPGKERELVAAINISSSSTYYADSVKGRFTISRDNAKNTVYLQMNSLKPEDTAVYYCAKRDYVPIATDENDDYWGQGTQVTVSS | low polyreactivity |
| QVQLVESGGGLVQAGGSLRLSCAASGSIIARYAMGSYRQAPGKERELVATITRGGSTNYADSVKGRFTISRDNAKNTVYLQMNSLKPEDTAVYYCARTSYGRLDYWGQGTQVTVSS | low polyreactivity |
| QVQHVESGGGLVQAGGSLRLSCAASGSTFHDYAMAWYRQATGKEREFVAAIRWRGGSTYYADSVKGRFTISRDNAKNTVYLQMNSLKPEDTAVYYCAADYLQFRKYVVHFDYLGQGTQVTVSS | low polyreactivity |
| QVQLVESGGGLVQAGGSLRLSCAASGITFLKNAMGWYRQAPGKERELVAAISSSGGSTYYADSVKGRFTISRDNAKNTVYLQMNSLKPEDTAVYFCAARIYWYTPGRRGYTYDYWGQGTQVTVSS | high polyreactivity |
| QVQLVESGGGLVQAGGSLRLSCAASGRIFTYNAMGWSRQAPGKERELVAANTSSGGSTYYADSVKGRFTISRDYAKNTVYLQMNSLKPEDTAVYYCATVRRGRDYWGQGTQVTVSS | high polyreactivity |
| QVQLGESGGGLVQAGGSLRLSCAASGSIFRGYAMGWYRQAPGKGRELVAAISWSGASTYYADSVKGRFTISLDNAKNTVYLQMNSLKPEDTAVYYCAAVQWTGYPFDYWGQGTQVTVSS | high polyreactivity |
| QVQIVESGGGLVQAGGSLRLSCAASGFIFGANAMGWYRQAPGKEREFVAAISSSGGRYELRRSVKGRFTISRDKAKNTVYLQMNSLKPEDTAVYYCATPYPTGRPRHYYWGQGTQVTVSS | high polyreactivity |
| QVQLVESGGGLVQAGGSLRLSCAASGSIFRWNAMGWYRQAPRKEREMVAAIDYSGGSTYYADSVKGRFTISRDNAKKTVYLQMNSLKPEDTAVYFCADTAYYGGYLRYDYWGQGTQVTVSS | low polyreactivity |
| QVQLVESGGGLVQAGGSLRLSCAASGYNFYVNGMGWYRQAAGTERELVARITLSGTSTYYADSVKGRITISRDYAKNTVYLQMNSLKPDDTAVYYCAAPYFTYGLDVDVYWGQGTQVTVSS | low polyreactivity |
| QVQLVESGGGLVQAGGSLRLSCAASGFIFGYNAMGWYRQAPGIERELVAAITASGGSTYYADSVKGRFTISLDNAKNTVYLQLNSLIPEDTAVYYCATVLRKNGERGNRLYYWGQGTQVTVSS | high polyreactivity |
| QVQLVESGGGLVQAGGSLRLSCAASGITFGPYAMGWYRQAPGKERELVAAITWGGGSTYYADSVKGRFTISRDNAKNTVYLQMNSLKPEDTAVYYCNAEGSTTSRYLPYDYWGQGTQVTVSS | low polyreactivity |
| QVQLVESGGGLVQAGGSLRLSCAASGNTFFRYAMGWYRQAPGKERELVAAISKSGGSTYYADSVKGRFTISRDNAKNTVYLQMNSLKPEDTAVYYCAAYSPYGRYDYWGQGTQVTVSS | high polyreactivity |
| QLQLVESGGGLVQAGGSLRLSCAASGYIFFKYAMGWYRQAPWKERELVASITSRGGTTYYADSVKGRFTISRDNAKNTVYLQMNSLKPEDTAVYYCAALRRSSFGYWGQGTQVTVSS | high polyreactivity |
| QVQLVESGGGLVQAGGSLRLSCAASGIIFPRYAMGWYRQAPGKERELVAAITIGGRTNYADSVKGRFTISRDNAKNTVYLQMNSLKPEDTAVYYCAAQTYVPYYEYDYWGQGTQVTVSS | low polyreactivity |
